# Source: patent publication US9011845B2, “Methods for treatment of inflammatory and infectious viral diseases” (priority 2012, dated 2015)
# B1: peg-Arginase I: a formulation of arginase I that has been pegylated; applied as topical ophthalmic eye drop (protein, UniProt P05089 1-322, looked up)
# Arginase-1: MSAKSRTIGIIGAPFSKGQPRGGVEEGPTVLRKAGLLEKLKEQECDVKDYGDLPFADIPNDSPFQIVKNPRSVGKASEQLAGKVAEVKKNGRISLVLGGDHSLAIGSISGHARVHPDLGVIWVDAHTDINTPLTTTSGNLHGQPVSFLLKELKGKIPDVPGFSWVTPCISAKDIVYIGLRDVDPGEHYILKTLGIKYFSMTEVDRLGIGKVMEETLSYLLGRKKRPIHLSFDVDGLDPSFTPATGTPVVGGLTYREGLYITEEIYKTGLLSGLDIMEVNPSLGKTPEEVTRTVNTAVAITLACFGLAREGNHKPIDYLNPPK
# modifications: PEGylated
# notes: a formulation of arginase I that has been pegylated; applied as topical ophthalmic eye drop
# Columns and labels:
# [1] = test system: acyclovir resistant mutant HSV; assay: Cell cultures infected with acyclovir resistant mutant HSV: infectious HSV yield; assay type: cell-based; details: two different drug resistant mutant HSV viruses
# Excerpt: FIG. 8A is a bar graph showing infectious HSV yield for cell cultures infected with an acyclovir resistant mutant HSV, according to an example embodiment of the present invention.
# FIG. 8B is a bar graph showing infectious HSV yield for cell cultures infected with a different acyclovir resistant mutant HSV, according to an example embodiment of the present invention.
# (§1) In another exemplary embodiment, the present disclosure may be employed to treat pathogenic infections of the eye (e.g., herpes simplex virus types 1 and 2 (HSV-1 and HSV-2) and Adenovirus infections). Embodiments may be used as a treatment against wild-type and/or drug resistant herpes simplex virus (HSV) replication and/or transmission, as well as HSV-mediated inflammation-associated ocular disease.
# Adenovirus Type 5 = Adenovirus Type 5 pink-eye clinical disease rabbit eye model; assay type: in vivo; details: treatment initiated eight hours after infection; four times daily
# Procedure: FIG. 19 is a series of images of rabbit eyes with an Adenoviral infection and treated with control (peg-BSA), cidofovir, or peg-Arginase I drops, according to an example embodiment of the present invention.
# In an in vivo rabbit eye model system, the ability of peg-Arginase I to prevent inflammation-associated disease following Adenoviral infection was examined. Rabbit eyes were infected with Adenovirus and eight hours later treatment was initiated. Eyes were treated four times daily with 10 U peg-Arginase I per 50 μl dose. […] FIGS. 20 through 24 illustrate that peg-Arginase I suppresses clinical presentation of disease at all treatment days, including suppression of ocular inflammation and neovascularization. […] These properties of peg-Arginase I illustrate the present invention's utility in preventing numerous vision-threatening ocular diseases that present clinically as inflammation or neovascularization of the eye.
# HSV-1 [2] = assay: In vivo rabbit eye model of HSV infection; details: for dendritic or geographic ulceration and clinical appearance: vs controls (PBS or peg-BSA)
# Excerpt: FIG. 10 is line graph showing viral production in a rabbit eye model for eyes infected with HSV-1 and treated with controls (peg-BSA and PBS), 1% triflourothymidine, or peg-Arginase I, according to an example embodiment of the present invention.
# FIG. 11 is a series of images of rabbit eyes infected with HSV-1 and treated with controls (peg-BSA or PBS), 1% triflourothymidine, or peg-Arginase I, according to an example embodiment of the present invention.
# In an in vivo rabbit eye model system, the ability of peg-Arginase I to prevent HSV-mediated inflammation-associated disease was assessed relative to a commonly prescribed ophthalmic antiviral-1% triflourothymidine (TFT). Rabbit eyes were infected with HSV, and infection and disease were allowed to establish prior to beginning treatment. […] FIG. 11 depicts representative overall clinical presentation of ocular herpetic disease. In either of the control (PBS or peg-BSA) treatment groups, severe blinding disease was observed following infection, with presence of severe inflammatory discharge and blinding epithelial defects observed by slit lamp examination.
# [3] = test system: surgically-induced corneal lesions; assay: Surgically debrided cornea (corneal wound healing) rabbit eye model; assay type: in vivo
# Excerpt: FIG. 1A is a series of images of rabbit eyes with an 8 mm ([…]) region of cornea surgically debrided and treated with peg vehicle or peg-Arginase I, according to an example embodiment of the present invention.
# In an exemplary embodiment, the present disclosure may be employed to treat ocular lesions, which may be caused by accidental or surgical trauma. Application of peg-Arginase I to a corneal lesion accelerates wound healing while reducing or eliminating ocular inflammation, neovascularization and inflammatory discharge.
# HSV-1 [4] = assay: HSV-1 infected cell cultures: infectious viral yield, cytopathic effects, cell-to-cell spread; assay type: cell-based
# Excerpt: FIG. 5 is a bar graph showing infectious viral yield for cell cultures infected with HSV-1 and treated with a vehicle (peg vehicle), peg-Arginase I, or different concentrations of acyclovir, according to an example embodiment of the present invention.
# FIG. 6 is a series of images showing virus-mediated cytopathic effects on cell cultures treated as described in FIG. 5.
# FIG. 7A is a series of images of HSV-plaques showing capacity for cell-to-cell spread following treatment with a vehicle (peg vehicle), peg-Arginase I, or acyclovir, according to an example embodiment of the present invention.
# as §1
# HSV-1 [5] = assay: Replication of HSV-1 in primary corneal epithelial cell cultures; assay type: cell-based; details: primary human corneal epithelial cells
# Excerpt: FIG. 9 is a bar graph showing replication of HSV-1 in primary corneal epithelial cell cultures treated with vehicle or peg-Arginase I, according to an example embodiment of the present invention.
# as §1
# Adenovirus = assay: Cell cultures infected with Adenovirus: cytopathic effects; assay type: cell-based
# Excerpt: FIG. 18 is a pair of images of cell cultures infected with Adenovirus and treated with control (peg-BSA) or peg-Arginase I drops, according to an example embodiment of the present invention.
# In another exemplary embodiment, the present disclosure may be employed to treat other inflammation-associated ocular diseases, such as those induced by Adenovirus infection. Clinical presentation following Adenoviral infection of the eye may proceed even when antiviral compounds, such as cidofovir, are present. Clinical presentation of Adenovirus-associated ocular disease may be due to uncontrolled inflammatory responses to the infection even following viral clearance.
# [6] = test system: VEGF-mediated migration of primary vascular endothelial cells; assay: Endothelial cell migration in a scratch wound healing model; assay type: cell-based; details: twenty-four hour period
# Excerpt: FIG. 25A is a series of images comparing effects of treatment with either control (peg-BSA) or peg-Arginase I on endothelial cell migration in a scratch wound healing model, according to an example embodiment of the present invention.
# FIG. 25B is a bar graph showing a percentage of unhealed wound area after a twenty-four hour period for the wounds shown in FIG. 25A.
# In another exemplary embodiment, the present disclosure may be employed to prevent and resolve corneal neovascularization and vascularization-associated edema. […] A key mediator and initiator of corneal vascularization may be vascular endothelial growth factor (VEGF).
# [7] = test system: VEGF-mediated corneal vascularization; assay: VEGF pellet corneal micropocket rabbit eye model; assay type: in vivo; details: 10 U per 50 μl drop 4 times daily
# Procedure: FIG. 26A is a pair of images of rabbit eyes having a VEGF pellet surgically implanted into a corneal micropocket and treated with vehicle or peg-Arginase I, according to an example embodiment of the present invention.
# In an in vivo rabbit eye model system, the ability of peg-Arginase I to prevent VEGF-mediated corneal vascularization was assessed by implanting slow release VEGF pellets within a corneal micropocket 3 mm from the corneal limbus. Eyes were subsequently treated with either peg-Arginase I (right, OD eye) or peg-BSA vehicle control (left, OS eye) 4 times daily at a dose of 10 U per 50 μl drop. […] As shown, peg-Arginase I inhibits vision-threatening corneal vascularization, further enabling peg-Arginase I to prevent and ameliorate vision-threatening aspects of many ocular diseases. Moreover, inhibition of vascularization assists in suppressing deleterious inflammatory responses.
molecule,measurement,setting,value
"Nc1nc2c(ncn2COCCO)c(=O)[nH]1 [acyclovir, reference compound]",inhibition of drug-resistant viral replication,[1],"not functional against such strains, even at high doses"
"Nc1ccn(C[C@@H](CO)OCP(=O)(O)O)c(=O)n1 [cidofovir, reference compound]",clinical symptoms / clinical disease presentation,Adenovirus Type 5,did not prevent clinical disease presentation
"O=c1[nH]c(=O)n([C@H]2C[C@H](O)[C@@H](CO)O2)cc1C(F)(F)F [1% TFT, triflourothymidine, reference compound]",dendritic or geographic ulceration and clinical appearance,HSV-1 [2],"marked reduction in the presence of dendritic or geographic ulceration, and improved clinical appearance"
B1,Calculated Times of Corneal Epithelium Closure,[3]; 25% closure,14 h
same,Calculated Times of Corneal Epithelium Closure,[3]; 50% closure,30 h
same,Calculated Times of Corneal Epithelium Closure,[3]; 75% closure,38 h
same,eyes clinically cured of all ocular parameters,[3]; by day six,all eyes clinically cured
same,time for 100% of eyes to reach clinical cure for epithelial defects relative to peg-vehicle,[3]; compared with peg-vehicle,two days faster
same,Number of Eyes Clinically Cured for Area of Corneal Debridement,[3]; day 0,0/5
same,Number of Eyes Clinically Cured of All Combined Ocular Clinical Conditions,[3]; day 0,0/5
same,Number of Eyes Clinically Cured of Corneal Neovascularization,[3]; day 0,5/5 (100%)
same,Number of Eyes Clinically Cured of Scleral Inflammation (Injection),[3]; day 0,5/5 (100%)
same,Number of Eyes Clinically Cured for Area of Corneal Debridement,[3]; day 1,0/5
same,Number of Eyes Clinically Cured of All Combined Ocular Clinical Conditions,[3]; day 1,0/5
same,Number of Eyes Clinically Cured of Corneal Neovascularization,[3]; day 1,5/5 (100%)
same,Number of Eyes Clinically Cured of Scleral Inflammation (Injection),[3]; day 1,5/5 (100%)
same,Number of Eyes Clinically Cured for Area of Corneal Debridement,[3]; day 2,0/5
same,Number of Eyes Clinically Cured of All Combined Ocular Clinical Conditions,[3]; day 2,0/5
same,Number of Eyes Clinically Cured of Corneal Neovascularization,[3]; day 2,5/5 (100%)
same,Number of Eyes Clinically Cured of Scleral Inflammation (Injection),[3]; day 2,5/5 (100%)
same,Number of Eyes Clinically Cured for Area of Corneal Debridement,[3]; day 3,3/5 (60%)
same,Number of Eyes Clinically Cured of All Combined Ocular Clinical Conditions,[3]; day 3,0/5
same,Number of Eyes Clinically Cured of Corneal Neovascularization,[3]; day 3,5/5 (100%)
same,Number of Eyes Clinically Cured of Scleral Inflammation (Injection),[3]; day 3,5/5 (100%)
same,Number of Eyes Clinically Cured for Area of Corneal Debridement,[3]; day 4,5/5 (100%)
same,Number of Eyes Clinically Cured of All Combined Ocular Clinical Conditions,[3]; day 4,4/5 (80%)
same,Number of Eyes Clinically Cured of Corneal Neovascularization,[3]; day 4,5/5 (100%)
same,Number of Eyes Clinically Cured of Scleral Inflammation (Injection),[3]; day 4,5/5 (100%)
same,Number of Eyes Clinically Cured for Area of Corneal Debridement,[3]; day 6,5/5 (100%)
same,Number of Eyes Clinically Cured of All Combined Ocular Clinical Conditions,[3]; day 6,5/5 (100%)
same,Number of Eyes Clinically Cured of Corneal Neovascularization,[3]; day 6,5/5 (100%)
same,Number of Eyes Clinically Cured of Scleral Inflammation (Injection),[3]; day 6,5/5 (100%)
same,eyes exhibiting no symptomology from the surgically-induced trauma,[3]; day four,80%
same,"virus-associated cytopathic effects, viral transmission to uninfected cells, cell-to-cell spread",HSV-1 [4]; HSV-1 infected cell cultures,"blocked virus-associated cytopathic effects, viral transmission to uninfected cells, and cell-to-cell spread"
same,inhibition of production of infectious virus,HSV-1 [4]; even at high multiplicities of infection (MOIs),greater than 1000 fold
same,effectiveness compared with acyclovir,"HSV-1 [4]; infectious viral yield, HSV-1","at least as effective as high doses of a common anti-herpetic, acyclovir"
same,inhibition of drug-resistant viral replication,[1],highly efficient at inhibiting drug-resistant viral replication
same,antiviral effects,HSV-1 [5],antiviral effects of peg-Arginase I were also observed
same,clinical presentation of disease,HSV-1 [2]; five days of treatment,statistically improved clinical presentation of disease
same,infectious viral titers upon treatment,HSV-1 [2]; treatment begun after infection established (day three post infection titers matched),barely detectable
same,dendritic or geographic ulceration and clinical appearance,HSV-1 [2],"marked reduction in the presence of dendritic or geographic ulceration, and improved clinical appearance"
same,toxicity to cells,Adenovirus; Adenovirus infected cell cultures,no toxicity to cells
same,Adenovirus-mediated cellular cytopathic effects,Adenovirus; vs peg-BSA control,prevents Adenovirus-mediated cellular cytopathic effects
same,clinical symptoms / clinical disease presentation,Adenovirus Type 5,fewer clinical symptoms
same,VEGF-mediated migration of primary vascular endothelial cells,[6],prevents VEGF-mediated migration of primary vascular endothelial cells
same,corneal edema resulting in corneal clouding and epithelial defects,[7],prevented the appearance of corneal edema
same,extent and areas of neovascularization of the cornea,[7]; compared to peg-BSA treated controls,significantly reduced
